Laboratory results as given in patent CN113929783A (FUZHOU MAIXIN BIOTECHNOLOGY DEV CO LTD, dated 2022).

Target: T1, 人CD99蛋白 (组织切片中表达) (human, UniProt P14209 23-185)
T1 construct: whole, on cells
T1 sequence (looked up): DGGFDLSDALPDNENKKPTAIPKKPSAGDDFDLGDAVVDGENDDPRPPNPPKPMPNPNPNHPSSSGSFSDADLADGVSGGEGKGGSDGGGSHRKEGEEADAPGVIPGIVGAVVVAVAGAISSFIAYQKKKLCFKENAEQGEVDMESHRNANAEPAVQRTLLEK
Assay: IHC on 8 ovarian granulosa cell tumours and 8 primitive neuroectodermal tumours

B1: 抗CD99蛋白单克隆抗体(10D2A10F9) (antibody, V domains shown)
VH: EVQLQQSGAELVKPGASVKLSCTASGFNIKDTYMHWVKQRPEQGLEWIGRIDPANGNTKYDPKFQGKATITADTSSNTAYLQLSSLTSEDTAVYYCGRRGFAYWGQGTLVTVSA
VL: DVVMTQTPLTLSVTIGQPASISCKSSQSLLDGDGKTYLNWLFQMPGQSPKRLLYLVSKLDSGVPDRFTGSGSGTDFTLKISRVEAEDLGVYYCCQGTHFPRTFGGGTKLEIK
notes: also called CGMCC NO.22316
**Q.** Does B1 bind?
**A.** Result: binds
